The results in this text go back to the supplement of paper PMC9112550, “Optimization of the antimicrobial peptide Bac7 by deep mutational scanning” (BMC Biology, 2022).
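Also: peptides expressed intracellularly from a pBAD plasmid library in pooled LB shake-flask culture, induced with 0.3% L-arabinose, DNA abundance read by NGS, three biological replicates, DESeq2 with apeglm shrinkage.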

In the data set the test system is Escherichia coli TOP10. The data set is described as follows: shrunken log2 fold change of peptide-encoding DNA abundance (4.5 h post-induction vs induction); higher = less antimicrobial activity (less host growth inhibition). Particulars: time post-induction: 4.5 h; library: site-saturation at positions 5, 18, 19, 20.
For RRIRNRPPRLPRPRPRPENYPRP, the “shrunken log2 fold change” value is -0.553. In the case of RRIRRRPPRLPRPRPRPTYGPRP, the “shrunken log2 fold change” value was found to be 0.0875. As for RRIRYRPPRLPRPRPRPDDTPRP, the figure is -0.876; as for RRIRFRPPRLPRPRPRPNFFPRP, -0.178. As for RRIRRRPPRLPRPRPRPTVKPRP, the figure is 0.106; as for RRIRSRPPRLPRPRPRPETGPRP, 0.105; as for RRIRCRPPRLPRPRPRPVPWPRP, -0.139. As for RRIRMRPPRLPRPRPRPPMCPRP, the figure is 0.293. Regarding RRIRNRPPRLPRPRPRPCMWPRP, the “shrunken log2 fold change” value was -0.0288. Take RRIRWRPPRLPRPRPRPEDHPRP: the “shrunken log2 fold change” value is 0.304. The figure for RRIRKRPPRLPRPRPRPCRCPRP is 0.0976.

Turning to RRIRNRPPRLPRPRPRPMWRPRP, the “shrunken log2 fold change” value was -0.0211. RRIRRRPPRLPRPRPRPVLCPRP: the “shrunken log2 fold change” value came out at 0.569. Consider RRIRMRPPRLPRPRPRPIKLPRP, for which the “shrunken log2 fold change” value was 0.0649. As for RRIRMRPPRLPRPRPRPQQMPRP, the “shrunken log2 fold change” value was -0.0302.

Regarding RRIRYRPPRLPRPRPRPPSWPRP, the “shrunken log2 fold change” value stood at 0.133. As for RRIRLRPPRLPRPRPRPGKTPRP, the figure is 0.086; as for RRIRIRPPRLPRPRPRPQLYPRP, -0.303; as for RRIRNRPPRLPRPRPRPNAMPRP, 0.0458.

For RRIRVRPPRLPRPRPRPYFGPRP, the “shrunken log2 fold change” value is -0.0505.

RRIRVRPPRLPRPRPRPIMPPRP: the “shrunken log2 fold change” value was -0.535. Consider RRIRMRPPRLPRPRPRPCGSPRP, for which the “shrunken log2 fold change” value is -0.0626. On to RRIRARPPRLPRPRPRPCHWPRP, for which the “shrunken log2 fold change” value is -0.153. As for RRIRERPPRLPRPRPRPQSNPRP, the figure is -0.172. The figure for RRIRLRPPRLPRPRPRPLPQPRP is 0.0529; for RRIRTRPPRLPRPRPRPMKMPRP it is 0.0821; for RRIRLRPPRLPRPRPRPWVRPRP it is -0.00819. The figure for RRIRSRPPRLPRPRPRPQRVPRP is -0.00684; for RRIRRRPPRLPRPRPRPNVCPRP it is 0.0167. Turning to RRIRERPPRLPRPRPRPIGVPRP, the “shrunken log2 fold change” value amounted to 0.0489. As for RRIRTRPPRLPRPRPRPRDYPRP, the figure is 0.104. RRIRQRPPRLPRPRPRPPHAPRP: the “shrunken log2 fold change” value was 0.322. The figure for RRIRDRPPRLPRPRPRPRHNPRP is -0.548; for RRIRHRPPRLPRPRPRPAHSPRP it is 0.0457; for RRIRARPPRLPRPRPRPQKTPRP it is 0.0194.

For RRIRNRPPRLPRPRPRPTEEPRP, the “shrunken log2 fold change” value is -0.00968. As for RRIRGRPPRLPRPRPRPCSHPRP, the figure is -0.112; as for RRIRPRPPRLPRPRPRPPKDPRP, 0.225.

In the case of RRIRCRPPRLPRPRPRPQNCPRP, the “shrunken log2 fold change” value came out at 0.137. The figure for RRIRRRPPRLPRPRPRPVIPPRP is 0.272; for RRIRFRPPRLPRPRPRPMTRPRP it is -0.173.

RRIRVRPPRLPRPRPRPEDWPRP: the “shrunken log2 fold change” value came out at 0.354. RRIRWRPPRLPRPRPRPKPYPRP: the “shrunken log2 fold change” value was 3.05. Regarding RRIRKRPPRLPRPRPRPWGNPRP, the “shrunken log2 fold change” value is -0.0638. Regarding RRIRVRPPRLPRPRPRPEIDPRP, the “shrunken log2 fold change” value amounted to 0.135.

As to RRIRPRPPRLPRPRPRPTKIPRP, the “shrunken log2 fold change” value is -0.0764. As for RRIRHRPPRLPRPRPRPWPCPRP, the figure is -0.027; as for RRIRDRPPRLPRPRPRPAIFPRP, 0.617. Turning to RRIRYRPPRLPRPRPRPGQRPRP, the “shrunken log2 fold change” value came to 0.212.

As to RRIRWRPPRLPRPRPRPGLIPRP, the “shrunken log2 fold change” value was found to be 0.336. For RRIRERPPRLPRPRPRPICKPRP, the “shrunken log2 fold change” value is -0.215. As for RRIRHRPPRLPRPRPRPDFWPRP, the figure is 0.372. Regarding RRIRDRPPRLPRPRPRPLNFPRP, the “shrunken log2 fold change” value was -0.139. The figure for RRIRFRPPRLPRPRPRPVQYPRP is -0.445. For the sequence RRIRTRPPRLPRPRPRPIAIPRP, the “shrunken log2 fold change” value was -0.0261. As for RRIRLRPPRLPRPRPRPGRDPRP, the figure is 0.26. As for RRIRMRPPRLPRPRPRPDYTPRP, the figure is -0.0182; as for RRIRVRPPRLPRPRPRPVVDPRP, -0.0784; as for RRIRSRPPRLPRPRPRPGADPRP, 0.463. The figure for RRIRWRPPRLPRPRPRPPKIPRP is 0.22; for RRIRARPPRLPRPRPRPGVCPRP it is 0.571; for RRIRRRPPRLPRPRPRPQTMPRP it is 0.0791. For RRIRHRPPRLPRPRPRPFGWPRP, the “shrunken log2 fold change” value turned out to be 0.0661. Regarding RRIRHRPPRLPRPRPRPGEMPRP, the “shrunken log2 fold change” value was found to be 0.257. For RRIRDRPPRLPRPRPRPMFSPRP, the “shrunken log2 fold change” value was -0.142. Consider RRIRVRPPRLPRPRPRPDHSPRP, for which the “shrunken log2 fold change” value is -0.252. Consider RRIRERPPRLPRPRPRPALPPRP, for which the “shrunken log2 fold change” value came out at 0.439. The figure for RRIRPRPPRLPRPRPRPHKKPRP is 0.165; for RRIRYRPPRLPRPRPRPDWLPRP it is -0.0748; for RRIRQRPPRLPRPRPRPNWQPRP it is -0.0119.

RRIRNRPPRLPRPRPRPGVKPRP: the “shrunken log2 fold change” value was -0.117. As for RRIRRRPPRLPRPRPRPKWMPRP, the “shrunken log2 fold change” value was 0.338. As for RRIRIRPPRLPRPRPRPCTGPRP, the figure is -0.887; as for RRIRCRPPRLPRPRPRPPITPRP, -0.286. In the case of RRIRGRPPRLPRPRPRPGYSPRP, the “shrunken log2 fold change” value came out at 2.2. For the sequence RRIRQRPPRLPRPRPRPHFIPRP, the “shrunken log2 fold change” value is -0.328.

For RRIRHRPPRLPRPRPRPWNHPRP, the “shrunken log2 fold change” value was -0.0561. As for RRIRRRPPRLPRPRPRPAQRPRP, the figure is 0.414. The figure for RRIRMRPPRLPRPRPRPPDNPRP is 1.55.

On to RRIRNRPPRLPRPRPRPPGMPRP, for which the “shrunken log2 fold change” value is -0.138. As for RRIRCRPPRLPRPRPRPECAPRP, the figure is 0.543; as for RRIRVRPPRLPRPRPRPPFCPRP, 1.39.

For RRIRKRPPRLPRPRPRPYCQPRP, the “shrunken log2 fold change” value was -0.773. As for RRIRQRPPRLPRPRPRPNPWPRP, the figure is 0.0932. The figure for RRIRHRPPRLPRPRPRPRPSPRP is 0.466.

RRIRKRPPRLPRPRPRPMMAPRP: the “shrunken log2 fold change” value was 0.255.

For the sequence RRIRNRPPRLPRPRPRPDLMPRP, the “shrunken log2 fold change” value was determined as 3.21. As for RRIRPRPPRLPRPRPRPYDPPRP, the figure is -0.301; as for RRIRLRPPRLPRPRPRPGRNPRP, -0.0488. The figure for RRIRARPPRLPRPRPRPITLPRP is -0.13; for RRIRDRPPRLPRPRPRPPTSPRP it is 0.00594.
